# Laboratory results as given in US20240109945A1 (published 2024).
# No end group written: not given here. M3N2 = N-glycan
# T1: biotinylated N-glycopeptide A3Man (AVSHN(M3N2)ASLE) (also: biotinylated, position not given here)
# T1 peptide: AVSHN(M3N2)ASLE
# Molecular target: G2PB
# Assay: BLI
row,Kd [µM],Binder
1,1.45,Fbs1-7 (E154R.N159G.F177Y.E178R) (designed binder) MGSSHHHHHHHHSSGENLYFQSHMASQQEGLVPEGSADEERDHWQQFYFLSKRRRNLLRNPCGEEDLEGWSDVEHGGDGWRVERLPGDGGVEFTQDDSVKKYFASSYRWCRKAQVIDLQAEGYWEELLDTTQPAIVVKDWYSGRTDAGSLYELTVRLLSENEDVLAEFATGQVAVPEDGSWMEISHTFIDYGPGVRFVRFEHGGQDSVYWKGWFGARVTNSSVWVEP
2,27.5,Fbs1-1 (WT) (designed binder) MGSSHHHHHHHHSSGENLYFQSHMASQQEGLVPEGSADEERDHWQQFYFLSKRRRNLLRNPCGEEDLEGWSDVEHGGDGWRVEELPGDNGVEFTQDDSVKKYFASSFEWCRKAQVIDLQAEGYWEELLDTTQPAIVVKDWYSGRTDAGSLYELTVRLLSENEDVLAEFATGQVAVPEDGSWMEISHTFIDYGPGVRFVRFEHGGQDSVYWKGWFGARVTNSSVWVEP
3,0.54,Fbs1-3 (N159G.F177Y.E178R) (designed binder) MGSSHHHHHHHHSSGENLYFQSHMASQQEGLVPEGSADEERDHWQQFYFLSKRRRNLLRNPCGEEDLEGWSDVEHGGDGWRVEELPGDGGVEFTQDDSVKKYFASSYRWCRKAQVIDLQAEGYWEELLDTTQPAIVVKDWYSGRTDAGSLYELTVRLLSENEDVLAEFATGQVAVPEDGSWMEISHTFIDYGPGVRFVRFEHGGQDSVYWKGWFGARVTNSSVWVEP
4,0.79,Fbs1-6 (E153R.N159G.F177Y.E178R) (designed binder) MGSSHHHHHHHHSSGENLYFQSHMASQQEGLVPEGSADEERDHWQQFYFLSKRRRNLLRNPCGEEDLEGWSDVEHGGDGWRVRELPGDGGVEFTQDDSVKKYFASSYRWCRKAQVIDLQAEGYWEELLDTTQPAIVVKDWYSGRTDAGSLYELTVRLLSENEDVLAEFATGQVAVPEDGSWMEISHTFIDYGPGVRFVRFEHGGQDSVYWKGWFGARVTNSSVWVEP
5,1.19,Fbs1-8 (E153R.E154R.N159G.F177Y.E178R) (designed binder) MGSSHHHHHHHHSSGENLYFQSHMASQQEGLVPEGSADEERDHWQQFYFLSKRRRNLLRNPCGEEDLEGWSDVEHGGDGWRVRRLPGDGGVEFTQDDSVKKYFASSYRWCRKAQVIDLQAEGYWEELLDTTQPAIVVKDWYSGRTDAGSLYELTVRLLSENEDVLAEFATGQVAVPEDGSWMEISHTFIDYGPGVRFVRFEHGGQDSVYWKGWFGARVTNSSVWVEP
6,26.8,Fbs1-2 (F177Y.E178R) (designed binder) MGSSHHHHHHHHSSGENLYFQSHMASQQEGLVPEGSADEERDHWQQFYFLSKRRRNLLRNPCGEEDLEGWSDVEHGGDGWRVEELPGDNGVEFTQDDSVKKYFASSYRWCRKAQVIDLQAEGYWEELLDTTQPAIVVKDWYSGRTDAGSLYELTVRLLSENEDVLAEFATGQVAVPEDGSWMEISHTFIDYGPGVRFVRFEHGGQDSVYWKGWFGARVTNSSVWVEP

# Molecular target: T1, biotinylated N-glycopeptide A3Man …
# Assay: BLI
row,Kd [µM],Binder
1,0.86,Variant Fbs1-7 (designed binder) MGSSHHHHHHHHSSGENLYFQSHMASQQEGLVPEGSADEERDHWQQFYFLSKRRRNLLRNPCGEEDLEGWSDVEHGGDGWRVERLPGDGGVEFTQDDSVKKYFASSYRWCRKAQVIDLQAEGYWEELLDTTQPAIVVKDWYSGRTDAGSLYELTVRLLSENEDVLAEFATGQVAVPEDGSWMEISHTFIDYGPGVRFVRFEHGGQDSVYWKGWFGARVTNSSVWVEP
2,0.61,Variant Fbs1-2 (designed binder) MGSSHHHHHHHHSSGENLYFQSHMASQQEGLVPEGSADEERDHWQQFYFLSKRRRNLLRNPCGEEDLEGWSDVEHGGDGWRVEELPGDNGVEFTQDDSVKKYFASSYRWCRKAQVIDLQAEGYWEELLDTTQPAIVVKDWYSGRTDAGSLYELTVRLLSENEDVLAEFATGQVAVPEDGSWMEISHTFIDYGPGVRFVRFEHGGQDSVYWKGWFGARVTNSSVWVEP
3,1.14,Variant Fbs1-8 (designed binder) MGSSHHHHHHHHSSGENLYFQSHMASQQEGLVPEGSADEERDHWQQFYFLSKRRRNLLRNPCGEEDLEGWSDVEHGGDGWRVRRLPGDGGVEFTQDDSVKKYFASSYRWCRKAQVIDLQAEGYWEELLDTTQPAIVVKDWYSGRTDAGSLYELTVRLLSENEDVLAEFATGQVAVPEDGSWMEISHTFIDYGPGVRFVRFEHGGQDSVYWKGWFGARVTNSSVWVEP
4,0.88,Variant Fbs1-3 (designed binder) MGSSHHHHHHHHSSGENLYFQSHMASQQEGLVPEGSADEERDHWQQFYFLSKRRRNLLRNPCGEEDLEGWSDVEHGGDGWRVEELPGDGGVEFTQDDSVKKYFASSYRWCRKAQVIDLQAEGYWEELLDTTQPAIVVKDWYSGRTDAGSLYELTVRLLSENEDVLAEFATGQVAVPEDGSWMEISHTFIDYGPGVRFVRFEHGGQDSVYWKGWFGARVTNSSVWVEP
5,4.3,Variant Fbs1-1 (designed binder) MGSSHHHHHHHHSSGENLYFQSHMASQQEGLVPEGSADEERDHWQQFYFLSKRRRNLLRNPCGEEDLEGWSDVEHGGDGWRVEELPGDNGVEFTQDDSVKKYFASSFEWCRKAQVIDLQAEGYWEELLDTTQPAIVVKDWYSGRTDAGSLYELTVRLLSENEDVLAEFATGQVAVPEDGSWMEISHTFIDYGPGVRFVRFEHGGQDSVYWKGWFGARVTNSSVWVEP
6,0.2,Variant Fbs1-6 (designed binder) MGSSHHHHHHHHSSGENLYFQSHMASQQEGLVPEGSADEERDHWQQFYFLSKRRRNLLRNPCGEEDLEGWSDVEHGGDGWRVRELPGDGGVEFTQDDSVKKYFASSYRWCRKAQVIDLQAEGYWEELLDTTQPAIVVKDWYSGRTDAGSLYELTVRLLSENEDVLAEFATGQVAVPEDGSWMEISHTFIDYGPGVRFVRFEHGGQDSVYWKGWFGARVTNSSVWVEP
